Test results taken from paper PMC10058639.

Tests used:
[1] = target: recombinant truncated oyster intraflagellar transport protein 74-like protein (roIFT) (Crassostrea gigas (Pacific oyster)); assay: ELISA
[2] = target: recombinant truncated oyster tumor necrosis factor (roTNF) (Crassostrea gigas (Pacific oyster)); assay: ELISA

| Substance | P/N (OD450 of sample over negative control) [1] | P/N (OD450 of sample over negative control) [2] |
| --- | --- | --- |
| P protein of HuNoV GI.1, recombinant, purified (domain or fragment) | 6.97 | 5.88 |
| P protein of HuNoV GII.4, recombinant, purified (domain or fragment) | 3.95 | 5.33 |
